# Experiment: label from the status in PepcDB records
row,Sequence,protein production
1,MIALHTLLCADTPDDTPVCFDETTTMTRGMFRAHVAACIAAWSDRCANRYALCIDDPFAFACALFALLASGKAVVIPASSAPAYLASIADAYDSALTDGDMEGIISQAAQPPGAALLRPIAPHAPITLYTSGSSAAPKAIHKTLAQFDAEVRTLEDHWGEWIGPGAILASVPHHHIYGLLFRIFWPLASGRAFGRRTYAEPHALQTALTRRETAAIVSSPAQLARWPSLPGFDTLSPLPAAVFSSGGPLDEAAAATFASAHGTAPTEIYGSTETGGIAWRRRNESDAWQAFANVAVRREADGALSVRSPHLGHPDWHRTDDAAEFDDAGRFRLRGRMDRIVKLDGKRVSLPEIENWLGLHPYVAQSAAVLLPGASRERLGVLSALTSAGVEALRQHGRIGLAKTLRRHLAAYVAPTLIPRKWRFRMSLPVDARGKLPASAVAASFAAGRKGFEMLSHVRDAEGDHYELRVPPELVHFRGHFPGLPILPGVVLVDWIACLAAELADSTRSIRSIDQLKFMAPVPPAALVSVQLTHEPQRCRVRFRARLGTRECASGALVYREAD,failed
2,MEEWSASEACLFEEALEKYGKDFNDIRQDFLPWKSLTSIIEYYYMWKTTDRYVQQKR,not failed
3,MTNPGDGAAGAADRATLDHWRPRLAAIAAAAGQDDAAHDLGHLRRVWDAARAMLQAHPEADALVVLAASYLHDLVNLPKNHPERHLASRQAAAAARERLARAGFPAARLDAVAHAIEAHSFSAGIAPRTIEARIVQDADRLDALGPVGLVRMFHVGGSLGRALAHPSDPLAAQRALDDSRYTLDHIEAKLARLPHGMQTEAGRRLGEQRLAWLRDFRAAFSAQWGGGQLRLEHHHHHH,failed
4,MGNFTFEEMNLMCIYNTGSRTGLIDSLREMRGELSPEETELRELTDSALTKLCAMTDEDFAQLELYPDFDQLEHHHHHH,not failed
5,MPRYQATLLIELKKGILDPQGRAVEGVLKDLGHPVEEVRVGKVLEIVFPAENLLEAEEKAKAMGALLANPVMEVYALEALKELP,not failed
6,MTTPNRFVAGAIDLGEVKARAEARSQAQRAGQSSVTEVEPTVTITMDNVEEQLIKRSMQVPVVVLIGTPRSPDSEQLRAD,failed
7,MSLANLSELPNIGKVLEQDLIKAGIKTPVELKDVGSKEAFLRIWENDSSVCMSELYALEGAVQGIRWHGLDEAKKIELKKFHQSLEGHHHHHH,not failed
8,MIRGGRNNITSAPAFSKDAKKLLLCTANTVSVYSVATGLKITSLEDHTAPVTSVIVDPSSDETVSYCWTSSLDGKIRIWEFSAPKLLKIFDTHLPIHSLVMIPAQVSHSVIAYVSVEDYSSVSKDLFGQIRRYDLTQDPLHSGDTLKEMEEPKPIVLSPSGEFFGVCHNCSIHIWNVASEHLMPKETTLHHTELITVFAFHPNQRILAAGDVTGRVLIWKDNGIGEFTSVKTEDDTESCTTFNWHSAEVTVLNFSSDGALLYSGVKAGDFVVWELGTGKKQLLPKIGSPLLYFIFSSDSTLSSVICADNQIHLLKMPSMEILRTISGIKPPTPERHGFICYVKTRDICLTRTVSIDRSSGIAAFCTANHRVQLYNLLSDHDISEVQICDHHPDDDDQVRVLVTAVALSRNGSVMTTAEARFAASNFSEGIVSLKFWVFVPDSKTFSLSTVINQPHREAAITAIALNPARSMAVSISSAGDFKIWVCSSDKNLTPEDSNWICHGVGSYKRTPITAAVFSGDGSCLALAAKTVITIWHPLKNELLYVVGKANAPIMELSFTGGGFLIAASHGSTPHLSVWDLMTFCLSWSYRLYIEAIATEVDSPYFAVLTWLPESDRLVKSNEQIFRGKDGAILLFDGSGPKPVAIWTVMKARGGTLSFVEDGKKSQPLLAYVNRSHEYVLFDPYSDEKLETSAIDYEVFLAAISKKKKRSRKKALMSEKPWETMFCGSTLNFPPFPDLCASFFSSRMQKEVCERADRQPERHSS,failed
9,MYFVDRSKIEKTLGFFEHQLALFDSQTDWQSEIGELALQRIGHLLIECILDTGNDMIDGFIMRDPGSYDDIMDILVDEKVVTEKEGDELKKLIAYRKTLVQQYLLADSGELYRLIKAHQTALQDFPKRIRSYLETELGPVSAFK,not failed
10,THANIQGLVKHVDYMAFSDQDTFLSVSNYAFDAFTFDFYASMLNAARLIIADEHTLLDTERLTDLILQENVNVMFATTALFNLLTDAGEDWMKGLRCILFGGERASVPHVRKALRIMGPGKLINCYGPTEGTVFATAHVVHDLPDSISSLPIGKPISN,failed
11,MSDKFHILLLNGPNLNLLGTREPEKYGYTTLAEIVSQLEIQAQGMDVALSHLQSNAEHALIDSIHQARGNTDFILINPAAFTHTSVALRDALLGVQIPFIEIHLSNVHAREPFRHHSYLSDIAVGVICGLGADGYNFALQAAVNRLSKSN,not failed
12,MAAKTMRKAEELVEKAMKGNDASHDAWHVWRVRDLALSIAREEGLSSNSDSMEIVELAALLHDIGDYKYIRDPSEEKLVENFLDDEGIEETKKTKILTIINGMGFKDELAGVALCESLPEFGVVQDADRLDAIGAIGIARCFTFGGSRNRVLHDPEIKPRTELTKEQYIKREEQTTINHFHEKLLKLKKLMKTEAGKRRAEKRHKFMEEYLKEFYEEWDGST,failed
13,MFSSFSSRRRFRDLSDAEILALAISSEEDDARIYRSYADRLRAPYPGTAALFEAMAEEEDSHRRRLIGTFRDRFGETIPLIRREHVEGYPSRKPVWLLETLPLERVRREAWEMENAARSFYETAARHVTDASTRKLLGDLAAAEAAHEHRAERLAEEHLTDEATAAEDETARRQFILTWVQPGLAGLMDGSVSTLAPIFATAFATQDPATTFQVALAASVGAGISMGFTEAAHDDGVLSGRGAPWKRGLASGVMTTAGGLGHALPYLIPDFAWATGIAIAVVFFELWAIAWIQNRYMETPFLRAALQVVLGGGLVLAAGILIGFG,failed
14,MGHHHHHHSHMPRGPAGEAGASPPVRRVRVVKQEAGGLGISIKGGRENRMPILISKIFPGLAADQSRALRLGDAILSVNGTDLRQATHDQAVQALKRAGKEVLLEVKFIREVT,failed
15,MSENLTMSELMDSFELKHFHKGEIVKGKVISVKNDEIIVNIGHFADGVVPRNEISNDKNFDINSINVDDDIFVMVLSGDDGEGNVLLSKKRADAIKVCDDLKEAFEEEKSIKVSLKEVVKGGIVGDFNGLRVFMPASQCAGRRIENLEELVGKTLEVRVIEFNKENRKVVVSRRVIDEEIRNNEKKALWSSIKEGEKRKGKVTRLAKFGAFVDIGGVEGLVHLSDMSWSRVHKPEEVVSVGDEVEVFVSEVDMDRERIALSLKDVIKNPWETLEGLKVGNVVLGKVTNFIKVGAFVEVLPGIEGLVHISEITDENIAKPSDILELGQEVKVKILNIDDENKKMSLSIKDAVETSNEYMQYNDEEEGYSLADLFKGLNLLEHHHHHH,not failed
16,MRTLAVISAGLSTPSSTRQIADSISEAVTAAVSARGEALSVSTIELSELIPDLMTAMTTRVHTTKLEEITSALSASDGLVVATPVFKASYTGLFKMFFDILDTDALTGMPTIIAATAGSARHSLVLDYALRPLLSYMRAVVVPTGVFAATEDFGGPEGAEFNKRIARAAGELASLIVEESGNVGLEHHHHHH,failed
17,MNWIPLEQLLLKLHTPRAVSAAPAIDLGAVQEQALSLAAALQARGVRRLAVHLEDAVELAVALLGAWRAGASVLLPADLQAQTRQRWSSEVDLWLTDQDTPLHQLQASPLAPAELDPDTCQLSLCTSGSSGEPKRIEKNLRQLANEVVALEHLWGADLGQAWIIGSVATQHIYGLLFRVLWPLCAGRPFVRRQLPFPEDLQRASRECPAFAWVASPALLKRMGDNLDWPALSQVRRVFSSGGALPAEAASGLHQRLQQWPTEILGSSETGGIAWRQGPGLWQPFADVRLSQDADGALLIASPYLPAGHVEHTADAARIAADGRFELLGRLDRIVKLEEKRISLPMLEQALASHEWVAEARLGVIEDNRAYLGALLVLSEPGLHALRNQGRRHLTQALRQHLAGHCEALALPRRWRLVRQLPLNSQGKLPQAQVQALLLAPRPQAPEVLEQRQHEEEWQLQLAIPPDLAYFSGHFPQTPVLPGVVQVDWALALGQQLLELPGRFAGMEVLKFQQLVRPGDRIQLNLRFDAQRQKLYFAYLNDGAPCSCGRIVLEASCG,failed
18,MPGDLPMPTTMFTADELAVIRRAYAHQVMATAATTNPRIEAAFATVPREKFLGAPPWQIANLGGGNRPLPSSDLVLAYQDVLFALQPDNGVNNGSPSLHARLLAELDIQIGDRIAHIGAGTGYYSAILAELVGTSGHVYAVEMDPDLAAHAQAALAERANVSVINADGSQWPQQEVDAIYVNFAVARPAEPWIERLRPGGRLVLPLGVPRQDRPPKGGRHASHGAALRIEHGEGGFAARWIGTAYFVCANGGLTIDDNEIEALTAAFRRGGIEFVKSLLWKTEPRIGRCWHIGGQWALCYDDV,failed
19,MGHHHHHHSHRPESFFQQSFQRLSRLGHGSYGEVFKVRSKEDGRLYAVKRSMSPFRGPKDRARKLAEVGSHEKVGQHPCCVRLEQAWEEGGILYLQTELCGPSLQQHCEAWGASLPEAQVWGYLRDTLLALAHLHSQGLVHLDVKPANIFLGPRGRCKLGDFGLLVELGTAGAGEVQEGDPRYMAPELLQGSYGTAADVFSLGLTILEVACNMELPHGGEGWQQLRQGYLPPEFTAGLSSELRSVLVMMLEPDPKLRATAEALLALPVLRQPRAWGVLWCMAAEALSRG,failed
20,MPAPLSIVIPTLQAESSLPRLLEALIEGLPNGLIREVIVSDGGSQDATRAIAEAAGAQVLNGPPSRGGQLRHGCDAARGDWLLVLHADTLPDPGWAGVVADHIAAREDAACFRLAFRARGPGAAWVAGWANLRTRLFGLPYGDQGLLIRRRDYQTAGGYPDQLLMEDVHLVRALSRAPVLLPHRALTGAERYLRSGWLRRGARNLWTLMRYFAGTDPEALARAYRRLEHHHHHH,failed
21,MAVKFFGQFLVEKGVVSRETLLQAIELQESVNLSFGATSLAMGILTEADIERIHNAQRIEDLRFGDMAVKLGLLTSEQMMQVLTRQKNTHLYIGEALVKVGSFQADELPKYLEEFKADQAQYATDTVVIPTGVSEPKIWEMVADLSYKMLTRVALLVFRPEPCFVADRVPAMDVYATMDFTGDISGRYFMGVTAATQKKIAKAILKEPNVDNEPKEILDDTVMEFVNVALGNIAAKAAQSGKSMEIAPPEIIEAPDGIQVPDGHKALCFPVCLSDGDRIELAVFIQQLEHHHHHH,not failed
22,VFADKLDITVDQKKIILPYWLSRPVSYGAVIIVSGGETAQWSLLLEQFAKGLARNGWSVVLLNCTKNNSIPWINQLPEVISTLRQNNNKRIVLVHYGDQLNLALEYFSKPQSKMINGLVMLSAYDLNRNLQKVPRLRFPLFDIVGQFDYDMVRQQRKSREEKFKENSYLAIDIPGATHDYQYSQQLLLAFVHGWM,not failed
23,MMSNALRRFDPAWFEKYDGIIKHERLGTHVGKPNSSHNYAIEKCVNLMNQGQSIVHALFKQDDVMKREYHIPLNTSIDASRYLLRQGIAFHGHDESEESANKGNFLELVKYTGEQNDATEQMAVVFRFVDKSGTVKERFIEVVHVKETSSASVKSAIDDLFAKYGLSLKTVRGQGYDGASIMKVAKGVAKSFDLLSLLLKIIVVYK,failed
24,MTGKEDEYEFEKTEKSSSLDEESTGSEVNEQKESYLDIINIIGSLMQDENYSLKNESILTINKILSFLNKEIYENKNFTEAWLIKGTVLYKTGKYNGAIDAFDGALESMSEKTSEEKLDTWIKSYGINYRYALKFKAFSLCKLGRYREALNALDEISAIYPEDPEIESHKNMLQTLENERLIRRTGNTQDQPPKHPGIWERRGKSSYKLGKYEEAVKEFDRCLESNPKDADILRNKGSALYMLGRYEEAIEAFNKSLELNPRDADAWNLKGSTLYMIGRPEEALRALDKALQRNPNIFEAWFNKGSILFELGKYKQALSAVENALRINAEDINALTLKTSILSGLKQDEK,failed
25,MVVLKKMIGLVVVLSVLLARDNPFEPEINSKNLQGGFNGIYDSYFKEIHVDLPTSARILKQITLTYQDIDGSIHSKVVGIDKGIDWHYPLKLSQHTLDPAAFEKRYQIQDFDFLMASNTMILRSPYKILRSFVLVNPYRIVLDTQKGPLDIYQNMDLNQKFFSHIKVGTHKDYYRITLILDGKYRYLLEEKNGAYELKLK,failed
